Experimental data taken from paper doi:10.1101/2025.10.04.680452 (bioRxiv, 2025).
Where “and” joins values, the source holds several entries; their conditions need not be identical. Equal entries are not always repeated.

Target: the molecule itself
Assay: cryo-EM structure

B1: human mitochondrial group I chaperonin mHsp60, wild type (natural protein)
chain: GSAKDVKFGADARALMLQGVDLLADAVAVTMGPKGRTVIIEQSWGSPKVTKDGVTVAKSIDLKDKYKNIGAKLVQDVANNTNEEAGDGTTTATVLARSIAKEGFEKISKGANPVEIRRGVMLAVDAVIAELKKQSKPVTTPEEIAQVATISANGDKEIGNIISDAMKKVGRKGVITVKDGKTLNDELEIIEGMKFDRGYISPYFINTSKGQKCEFQDAYVLLSEKKISSIQSIVPALEIANAHRKPLVIIAEDVDGEALSTLVLNRLKVGLQVVAVKAPGFGDNRKNQLKDMAIATGGAVFGEEGLTLNLEDVQPHDLGKVGEVIVTKDDAMLLKGKGDKAQIEKRIQEIIEQLDVTTSEYEKEKLNERLAKLSDGVAVLKVGGTSDVEVNEKKDRVTDALNATRAAVEEGIVLGGGCALLRCIPALDSLTPANEDQKIGIEIIKRTLKIPAMTIAKNAGVEGSLIVEKIMQSSSEVGYDAMAGDFVNMVEKGIIDPTKVVRTALLDAAGVASLLTTAEVVVTEIPKEEKDPGMGAMGGMGGGMGGGMF
- stoichiometry N: 7 and 14
